Laboratory results as given in US20100248975A1, “Fluorogenic peptide substrate arrays for highly multiplexed, real-time monitoring of kinase activities” (priority 2006, published 2010).

Key:
[1] = system: combination of Abl and Src; assay: Kinase substrate peptide array incubated with mixture of Abl and Src kinases, phospho-specific fluorescent stain; type: biochemical; details: incubation with combination of Abl and Src; 200 μM ATP, 10 mM MgCl2, 1 hour at 30° C.; FIG. 4C
From the text: (§1) An array of 2520 peptides with 6 different amino acid sequences repeated 420 times was synthesized in situ. The six sequences were designed to represent wild type and two mutated versions of substrates of Abl and Src tyrosine kinases. The sequence of the peptides were: Abl (wt)—AIYAAPFK (SEQ ID NO:10); Abl (Mt 1)—ARYAAPDK (SEQ ID NO:11); Abl (Mt 2)—AIGAAPFK (SEQ ID NO:12); Src (wt)—EIYGEFKK (SEQ ID NO:13); Src (mt1)—EAYGEAKK (SEQ ID NO:14); and Src (mt2)—EIAGEFKK (SEQ ID NO:15), as shown in FIG. 3A.
(§2) The array was synthesized on amino derivatized silicon wafers coupled with dO-(N-Boc-2-aminoethyl)-O′—(N-diglycolyl-2-aminoethyl)hexaethyleneglycol molecule for spacing out the peptides from the surface. The peptides were synthesized using photodeprotection and t-Boc protected amino acids.
(§3) The kinase substrate array was then assayed for detecting Abl and Src kinase activity. The protecting groups of the side groups of amino acids were cleaved by HBr/TFA treatment for one hour in the presence of the scavengers thioanisole and pentamethylbenzene. The array was subsequently neutralized by 5% DIEA treatment for 5 minutes. The array was blocked with 2% BSA for 1 hour for eliminating non-specific sticking of the kinase to the array. […] The kinase mixture was washed off and the phosphorylated peptides were detected by incubating the array with a phospho-specific fluorescent stain.

Abl kinase = Abl kinase (Homo sapiens, UniProt P00519); assay: Kinase substrate peptide array incubated with Abl kinase alone, phospho-specific fluorescent stain; type: biochemical; details: incubation with Abl alone; 200 μM ATP, 10 mM MgCl2, 1 hour at 30° C.; FIG. 4A
Sequence of Abl kinase (Homo sapiens, UniProt P00519) (P00519 whole entry): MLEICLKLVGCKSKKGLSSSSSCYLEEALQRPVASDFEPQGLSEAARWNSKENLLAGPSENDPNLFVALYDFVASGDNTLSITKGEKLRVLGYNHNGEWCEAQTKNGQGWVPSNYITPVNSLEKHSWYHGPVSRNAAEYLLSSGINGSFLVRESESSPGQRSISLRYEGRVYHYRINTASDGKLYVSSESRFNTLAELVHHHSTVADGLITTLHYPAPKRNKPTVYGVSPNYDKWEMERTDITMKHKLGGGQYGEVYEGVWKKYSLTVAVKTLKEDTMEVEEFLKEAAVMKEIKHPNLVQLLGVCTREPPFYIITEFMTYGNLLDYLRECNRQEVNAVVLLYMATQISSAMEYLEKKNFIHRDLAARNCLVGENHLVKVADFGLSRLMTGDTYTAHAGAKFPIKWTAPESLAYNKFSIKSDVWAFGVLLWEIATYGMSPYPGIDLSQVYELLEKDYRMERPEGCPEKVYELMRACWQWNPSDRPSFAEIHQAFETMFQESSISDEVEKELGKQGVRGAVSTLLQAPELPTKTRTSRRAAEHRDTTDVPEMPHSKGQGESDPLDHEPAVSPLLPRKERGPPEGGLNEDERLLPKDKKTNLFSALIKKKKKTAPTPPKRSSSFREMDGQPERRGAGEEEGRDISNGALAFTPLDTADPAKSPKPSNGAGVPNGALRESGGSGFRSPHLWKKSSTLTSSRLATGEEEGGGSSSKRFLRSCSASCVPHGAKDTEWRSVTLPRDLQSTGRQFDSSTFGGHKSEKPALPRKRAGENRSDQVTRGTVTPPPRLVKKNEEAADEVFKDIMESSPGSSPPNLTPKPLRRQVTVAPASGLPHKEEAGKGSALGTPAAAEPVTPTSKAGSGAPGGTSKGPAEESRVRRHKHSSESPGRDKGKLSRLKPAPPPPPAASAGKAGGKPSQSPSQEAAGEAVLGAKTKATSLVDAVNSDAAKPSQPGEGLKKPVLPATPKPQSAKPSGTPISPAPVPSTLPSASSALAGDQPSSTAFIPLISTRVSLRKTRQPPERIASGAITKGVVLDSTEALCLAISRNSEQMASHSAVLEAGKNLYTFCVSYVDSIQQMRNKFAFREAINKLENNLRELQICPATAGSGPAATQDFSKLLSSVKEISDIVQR
From the text: as §1, §2, §3

[2] = system: T1, Abl (Mt 1) substrate peptide ARYAAPDK
T1 sequence: ARYAAPDK

[3] = system: T2, Src (mt1) substrate peptide EAYGEAKK
T2 sequence: EAYGEAKK

[4] = system: T3, Src (wt) substrate peptide EIYGEFKK
T3 sequence: EIYGEFKK

[5] = system: T4, Abl (wt) substrate peptide AIYAAPFK
T4 sequence: AIYAAPFK

[6] = system: T5, Abl (Mt 2) substrate peptide AIGAAPFK
T5 sequence: AIGAAPFK

[7] = system: T6, Src (mt2) substrate peptide EIAGEFKK
T6 sequence: EIAGEFKK

Src kinase = Src kinase (Homo sapiens, UniProt P12931); assay: Kinase substrate peptide array incubated with Src kinase alone, phospho-specific fluorescent stain; type: biochemical; details: incubation with Src alone; 200 μM ATP, 10 mM MgCl2, 1 hour at 30° C.; FIG. 4B
From the text: as §1, §2, §3

Sequence of Abl kinase (P00519 whole entry): as above

AIYAAPFK [SEQ ID NO:10, wild type substrate peptide of Abl tyrosine kinase, synthesized in situ on array]
phosphorylation of immobilized peptide (fluorescence of array spots) [1]: phosphorylated
phosphorylation of immobilized peptide (fluorescence of array spots) (Abl kinase): phosphorylated

Src kinase
phosphorylation of the arrayed peptide, detected with a phospho-specific fluorescent stain [2]: only the corresponding wild type substrate peptide (either SEQ NO:10 or 13, respectively) was phosphorylated (this peptide not phosphorylated)
phosphorylation of the arrayed peptide, detected with a phospho-specific fluorescent stain [3]: only the corresponding wild type substrate peptide (either SEQ NO:10 or 13, respectively) was phosphorylated (this peptide not phosphorylated)
phosphorylation of the arrayed peptide, detected with a phospho-specific fluorescent stain [4]: in the presence of one kinase, only the corresponding wild type substrate peptide (either SEQ NO:10 or 13, respectively) was phosphorylated
phosphorylation of the arrayed peptide, detected with a phospho-specific fluorescent stain [5]: only the corresponding wild type substrate peptide (either SEQ NO:10 or 13, respectively) was phosphorylated (this peptide not phosphorylated)
phosphorylation of the arrayed peptide, detected with a phospho-specific fluorescent stain [6]: only the corresponding wild type substrate peptide (either SEQ NO:10 or 13, respectively) was phosphorylated (this peptide not phosphorylated)
phosphorylation of the arrayed peptide, detected with a phospho-specific fluorescent stain [7]: only the corresponding wild type substrate peptide (either SEQ NO:10 or 13, respectively) was phosphorylated (this peptide not phosphorylated)

Abl kinase
phosphorylation of the arrayed peptide, detected with a phospho-specific fluorescent stain [2]: only the corresponding wild type substrate peptide (either SEQ NO:10 or 13, respectively) was phosphorylated (this peptide not phosphorylated)
phosphorylation of the arrayed peptide, detected with a phospho-specific fluorescent stain [3]: only the corresponding wild type substrate peptide (either SEQ NO:10 or 13, respectively) was phosphorylated (this peptide not phosphorylated)
phosphorylation of the arrayed peptide, detected with a phospho-specific fluorescent stain [4]: only the corresponding wild type substrate peptide (either SEQ NO:10 or 13, respectively) was phosphorylated (this peptide not phosphorylated)
phosphorylation of the arrayed peptide, detected with a phospho-specific fluorescent stain [5]: in the presence of one kinase, only the corresponding wild type substrate peptide (either SEQ NO:10 or 13, respectively) was phosphorylated
phosphorylation of the arrayed peptide, detected with a phospho-specific fluorescent stain [6]: only the corresponding wild type substrate peptide (either SEQ NO:10 or 13, respectively) was phosphorylated (this peptide not phosphorylated)
phosphorylation of the arrayed peptide, detected with a phospho-specific fluorescent stain [7]: only the corresponding wild type substrate peptide (either SEQ NO:10 or 13, respectively) was phosphorylated (this peptide not phosphorylated)

EIYGEFKK [SEQ ID NO:13, wild type substrate peptide of Src tyrosine kinase, synthesized in situ on array]
phosphorylation of immobilized peptide (fluorescence of array spots) [1]: phosphorylated
phosphorylation of immobilized peptide (fluorescence of array spots) (Src kinase): phosphorylated
